From paper PMC4259812 (The Journal of Cell Biology, 2014)

Molecular target: T1, human raver1 RRM1-3 domains (residues 39-321) (human, UniProt Q8IY67 39-321)
T1 sequence: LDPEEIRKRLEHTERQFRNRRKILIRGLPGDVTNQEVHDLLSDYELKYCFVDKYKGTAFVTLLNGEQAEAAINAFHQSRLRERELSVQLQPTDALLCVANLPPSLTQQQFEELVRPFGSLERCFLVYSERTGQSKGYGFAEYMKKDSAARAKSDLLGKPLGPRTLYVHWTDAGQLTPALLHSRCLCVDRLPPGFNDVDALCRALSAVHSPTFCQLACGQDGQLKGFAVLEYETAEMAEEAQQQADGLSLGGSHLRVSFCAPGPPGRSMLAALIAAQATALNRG
Assay: SEC

B1: human vinculin tail domain (Vt), wild type, residues 891-1,066 (domain or fragment)
chain: GEVINQPMMMAARQLHDEARKWSSKGNDIIAAAKRMALLMAEMSRLVRGGSGTKRALIQCAKDIAKASDEVTRLAKEVAKQCTDKRIRTNLLQVCERIPTISTQLKILSTVKATMLGRTNISDEESEQATEMLVHNAQNLMQSVKETVREAEAASIKIRTDAGFTLRWVRKTPWYQ
B1: binds.
